Test results published in paper PMC6013482, “Conformational switching of the pseudokinase domain promotes human MLKL tetramerization and cell death by necroptosis” (Nature Communications, 2018).
Positions count from the first letter of the chain named. Names and notes keep the numbering of the source.

B1: wild-type human MLKL (residues 2–471), recombinant (natural protein, UniProt Q8NB16 2-471, looked up)
chain: ENLKHIITLGQVIHKRCEEMKYCKKQCRRLGHRVLGLIKPLEMLQDQGKRSVPSEKLTTAMNRFKAALEEANGEIEKFSNRSNICRFLTASQDKILFKDVNRKLSDVWKELSLLLQVEQRMPVSPISQGASWAQEDQQDADEDRRAFQMLRRDNEKIEASLRRLEINMKEIKETLRQYLPPKCMQEIPQEQIKEIKKEQLSGSPWILLRENEVSTLYKGEYHRAPVAIKVFKKLQAGSIAIVRQTFNKEIKTMKKFESPNILRIFGICIDETVTPPQFSIVMEYCELGTLRELLDREKDLTLGKRMVLVLGAARGLYRLHHSEAPELHGKIRSSNFLVTQGYQVKLAGFELRKTQTSMSLGTTREKTDRVKSTAYLSPQELEDVFYQYDVKSEIYSFGIVLWEIATGDIPFQGCNSEKIRKLVAVKRQQEPLGEDCPSELREIIDECRAHDPSVRPSVDEILKKLSTFSK
notes: human MLKL, residues 2–471; Elutes as oligomer (tetramer) and monomer peaks; the peaks were pooled except where indicated; Native MS used the oligomer SEC fraction; also called hMLKL; wild-type hMLKL; source: Sf21 insect cells (baculovirus), purified (glutathione agarose, TEV cleavage, Superdex S200); not shown: GST, N-terminal, cleaved
B2: K331N human MLKL (residues 2–471), recombinant (natural protein, UniProt Q8NB16 2-471, looked up)
chain: B1 chain with K330N
notes: human MLKL, residues 2–471, with K331N in the pseudocatalytic loop; also called K331N hMLKL; K331N hMLKL(2–471); source: Sf21 insect cells (baculovirus), purified (glutathione agarose, TEV cleavage, Superdex S200); not shown: GST, N-terminal, cleaved
B3: Streptavidin-binding peptide (SBP)-tagged human RIPK3 kinase domain (residues 2–356) (domain or fragment, UniProt Q9Y572 2-356, looked up)
chain: SCVKLWPSGAPAPLVSIEELENQELVGKGGFGTVFRAQHRKWGYDVAVKIVNSKAISREVKAMASLDNEFVLRLEGVIEKVNWDQDPKPALVTKFMENGSLSGLLQSQCPRPWPLLCRLLKEVVLGMFYLHDQNPVLLHRDLKPSNVLLDPELHVKLADFGLSTFQGGSQSGTGSGEPGGTLGYLAPELFVNVNRKASTASDVYSFGILMWAVLAGREVELPTEPSLVYEAVCNRQNRPSLAELPQAGPETPGLEGLKELMQLCWSSEPKDRPSFQECLPKTDEVFQMVENNMNAAVSTVKDFLSQLRSSNRRFSIPESGQGGTEMDGFRRTIENQHSRNDVMVSEWLNKLNLEE
notes: human RIPK3 kinase domain, residues 2–356; The His6 fusion is TEV protease-cleavable; also called SBP-hRIPK3; hRIPK3 kinase domain; source: Sf21 insect cells (bacmid from pFastBac Htb); not shown: SBP, N-terminal, kept

Legend:
[1] = target: the molecule itself; test: native MS; 250 mM ammonium acetate, nano electrospray; wild type: the oligomer SEC fraction; self-association
[2] = target: the molecule itself; test: AUC; sedimentation velocity, 0.25, 0.5 or 1 mg/mL hMLKL, 20 mM HEPES pH 7.5, 200 mM NaCl, 50,000 rpm, 20 °C; at 1 mg/mL also with 300 μM ATP; self-association (tetramer and monomer)
[3] = target: B1; test: SPR; SBP-hRIPK3 (2–356) immobilised on a streptavidin chip (Biacore SA); hMLKL flowed over at 1, 0.5, 0.25, 0.125, 0.0625 and 0 μM, 30 μL/min; 20 mM HEPES pH 8.0, 200 mM NaCl; 25 °C; conditions: both partners purified

## B1
[1]
  stoichiometry N: 4

## B2
[2]
  stoichiometry N: 4

## B3
[3]
  binding result: binds
